Measurements taken from patent US20140271675A1 (Eli Lilly, published 2014).

Columns and labels:
[1] = target: hVEGFR1-Fc (R&D 321-fl 050/cf) (human) (UniProt P17948); assay: competition ELISA, coated hVEGFR1-Fc, competitor biotin-hPLGF1 2 nM; control Ron antibody 0.023 µg/ml
[2] = target: hVEGFR1-Fc (R&D 321-fl 050/cf) (human) (UniProt P17948); assay: competition ELISA, coated hVEGFR1-Fc, competitor biotin-hPLGF1 2 nM; control Ron antibody 0.069 µg/ml
[3] = target: hVEGFR1-Fc (R&D 321-fl 050/cf) (human) (UniProt P17948); assay: competition ELISA, coated hVEGFR1-Fc, competitor biotin-hPLGF1 2 nM; control Ron antibody 0.206 µg/ml
[4] = target: hVEGFR1-Fc (R&D 321-fl 050/cf) (human) (UniProt P17948); assay: competition ELISA, coated hVEGFR1-Fc, competitor biotin-hPLGF1 2 nM; control Ron antibody 0.617 µg/ml
[5] = target: hVEGFR1-Fc (R&D 321-fl 050/cf) (human) (UniProt P17948); assay: competition ELISA, coated hVEGFR1-Fc, competitor biotin-hPLGF1 2 nM; control Ron antibody 1.852 µg/ml
[6] = target: hVEGFR1-Fc (R&D 321-fl 050/cf) (human) (UniProt P17948); assay: competition ELISA, coated hVEGFR1-Fc, competitor biotin-hPLGF1 2 nM; control Ron antibody 5.556 µg/ml
[7] = target: hVEGFR1-Fc (R&D 321-fl 050/cf) (human) (UniProt P17948); assay: competition ELISA, coated hVEGFR1-Fc, competitor biotin-hPLGF1 2 nM; control Ron antibody 16.667 µg/ml
[8] = target: hVEGFR1-Fc (R&D 321-fl 050/cf) (human) (UniProt P17948); assay: competition ELISA, coated hVEGFR1-Fc, competitor biotin-hPLGF1 2 nM; control Ron antibody 50.000 µg/ml
[9] = target: hVEGFR1-Fc (R&D 321-fl 050/cf) (human) (UniProt P17948); assay: competition ELISA, coated hVEGFR1-Fc, competitor biotin-hPLGF1 4 nM; control Ron antibody 0.0069 µg/ml
[10] = target: hVEGFR1-Fc (R&D 321-fl 050/cf) (human) (UniProt P17948); assay: competition ELISA, coated hVEGFR1-Fc, competitor biotin-hPLGF1 4 nM; control Ron antibody 0.0617 µg/ml
[11] = target: hVEGFR1-Fc (R&D 321-fl 050/cf) (human) (UniProt P17948); assay: competition ELISA, coated hVEGFR1-Fc, competitor biotin-hPLGF1 4 nM; control Ron antibody 0.1852 µg/ml
[12] = target: hVEGFR1-Fc (R&D 321-fl 050/cf) (human) (UniProt P17948); assay: competition ELISA, coated hVEGFR1-Fc, competitor biotin-hPLGF1 4 nM; control Ron antibody 0.5556 µg/ml
[13] = target: hVEGFR1-Fc (R&D 321-fl 050/cf) (human) (UniProt P17948); assay: competition ELISA, coated hVEGFR1-Fc, competitor biotin-hPLGF1 4 nM; control Ron antibody 1.6667 µg/ml
[14] = target: hVEGFR1-Fc (R&D 321-fl 050/cf) (human) (UniProt P17948); assay: competition ELISA, coated hVEGFR1-Fc, competitor biotin-hPLGF1 4 nM; control Ron antibody 5.0000 µg/ml
[15] = target: hVEGFR1-Fc (R&D 321-fl 050/cf) (human) (UniProt P17948); assay: competition ELISA, coated hVEGFR1-Fc, competitor biotin-hVEGFA-165 2 nM; control Ron antibody 0.023 µg/ml
[16] = target: hVEGFR1-Fc (R&D 321-fl 050/cf) (human) (UniProt P17948); assay: competition ELISA, coated hVEGFR1-Fc, competitor biotin-hVEGFA-165 2 nM; control Ron antibody 0.069 µg/ml
[17] = target: hVEGFR1-Fc (R&D 321-fl 050/cf) (human) (UniProt P17948); assay: competition ELISA, coated hVEGFR1-Fc, competitor biotin-hVEGFA-165 2 nM; control Ron antibody 0.617 µg/ml
[18] = target: hVEGFR1-Fc (R&D 321-fl 050/cf) (human) (UniProt P17948); assay: competition ELISA, coated hVEGFR1-Fc, competitor biotin-hVEGFA-165 2 nM; control Ron antibody 1.852 µg/ml
[19] = target: hVEGFR1-Fc (R&D 321-fl 050/cf) (human) (UniProt P17948); assay: competition ELISA, coated hVEGFR1-Fc, competitor biotin-hVEGFA-165 2 nM; control Ron antibody 5.556 µg/ml
[20] = target: hVEGFR1-Fc (R&D 321-fl 050/cf) (human) (UniProt P17948); assay: competition ELISA, coated hVEGFR1-Fc, competitor biotin-hVEGFA-165 2 nM; control Ron antibody 0.0069 µg/ml
[21] = target: hVEGFR1-Fc (R&D 321-fl 050/cf) (human) (UniProt P17948); assay: competition ELISA, coated hVEGFR1-Fc, competitor biotin-hVEGFA-165 2 nM; control Ron antibody 0.1852 µg/ml
[22] = target: hVEGFR1-Fc (R&D 321-fl 050/cf) (human) (UniProt P17948); assay: competition ELISA, coated hVEGFR1-Fc, competitor biotin-hVEGFA-165 2 nM; control Ron antibody 0.5556 µg/ml
[23] = target: hVEGFR1-Fc (R&D 321-fl 050/cf) (human) (UniProt P17948); assay: competition ELISA, coated hVEGFR1-Fc, competitor biotin-hVEGFA-165 2 nM; control Ron antibody 1.6667 µg/ml
[24] = target: hVEGFR1-Fc (R&D 321-fl 050/cf) (human) (UniProt P17948); assay: competition ELISA, coated hVEGFR1-Fc, competitor biotin-hVEGFA-165 2 nM; control Ron antibody 5.0000 µg/ml

Chain of hVEGFR1-Fc (R&D 321-fl 050/cf) (human) (P17948 27-758): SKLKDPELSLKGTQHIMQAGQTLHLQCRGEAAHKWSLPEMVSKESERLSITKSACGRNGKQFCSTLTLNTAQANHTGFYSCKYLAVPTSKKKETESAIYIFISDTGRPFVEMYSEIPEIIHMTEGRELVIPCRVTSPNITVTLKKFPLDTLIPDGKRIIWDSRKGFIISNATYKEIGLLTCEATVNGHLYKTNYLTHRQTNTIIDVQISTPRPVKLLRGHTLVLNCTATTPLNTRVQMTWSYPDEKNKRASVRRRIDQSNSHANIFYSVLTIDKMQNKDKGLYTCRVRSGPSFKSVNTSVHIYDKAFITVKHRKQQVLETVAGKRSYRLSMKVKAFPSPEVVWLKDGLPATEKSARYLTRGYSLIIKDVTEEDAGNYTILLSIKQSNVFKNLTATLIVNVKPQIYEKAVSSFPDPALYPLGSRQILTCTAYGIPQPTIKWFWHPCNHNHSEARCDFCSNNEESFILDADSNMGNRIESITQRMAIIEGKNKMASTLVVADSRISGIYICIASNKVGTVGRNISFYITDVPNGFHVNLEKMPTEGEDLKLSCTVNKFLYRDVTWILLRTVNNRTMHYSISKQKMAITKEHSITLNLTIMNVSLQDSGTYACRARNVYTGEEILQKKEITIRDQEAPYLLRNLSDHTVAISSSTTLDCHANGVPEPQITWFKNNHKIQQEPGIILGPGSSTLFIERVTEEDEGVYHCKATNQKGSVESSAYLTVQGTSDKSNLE

control Ron antibody (R&D MAB691) gave an OD560 (bound biotinylated PlGF) [1] of 0.296 OD, an OD560 (bound biotinylated PlGF) [2] of 0.283 OD and an OD560 (bound biotinylated PlGF) [3] of 0.315 OD. It also gave an OD560 (bound biotinylated PlGF) [4] of 0.295 OD, an OD560 (bound biotinylated PlGF) [5] of 0.3 OD and an OD560 (bound biotinylated PlGF) [6] of 0.298 OD. The OD560 (bound biotinylated PlGF) [7] was 0.304 OD, the OD560 (bound biotinylated PlGF) [8] was 0.339 OD and the OD560 (bound biotinylated PlGF) [9] was 0.37 OD. It also gave an OD560 (bound biotinylated PlGF) [10] of 0.408 OD, an OD560 (bound biotinylated PlGF) [11] of 0.405 OD and an OD560 (bound biotinylated PlGF) [12] of 0.436 OD. It also gave an OD560 (bound biotinylated PlGF) [13] of 0.432 OD, an OD560 (bound biotinylated PlGF) [14] of 0.407 OD and an OD560 (bound biotinylated VEGF-A) [15] of 0.506 OD. The OD560 (bound biotinylated VEGF-A) [16] was 0.519 OD, the OD560 (bound biotinylated VEGF-A) [17] was 0.535 OD and the OD560 (bound biotinylated VEGF-A) [18] was 0.53 OD. For the same substance, the OD560 (bound biotinylated VEGF-A) [19] was 0.535 OD, the OD560 (bound biotinylated VEGF-A) [20] was 1.53 OD and the OD560 (bound biotinylated VEGF-A) [21] was 1.46 OD. The OD560 (bound biotinylated VEGF-A) [22] was 1.47 OD, the OD560 (bound biotinylated VEGF-A) [23] was 1.42 OD and the OD560 (bound biotinylated VEGF-A) [24] was 1.51 OD.
